Measurements from paper PMC4861493, “Functional Evolution in Orthologous Cell-encoded RNA-dependent RNA Polymerases*” (The Journal of Biological Chemistry, 2016).

Biological target: the molecule itself
Assay: crystal structure; QDE-1^Tte catalytic fragment apoenzyme, crystals grown at 30 °C in 100 mM Tris-HCl pH 8.0, 75 mM NaCl, 10% PEG 10,000, 5 mM MgCl2, 6 mM spermine; 3.19 Å; two non-crystallographic dimers (A/B, C/D) in the asymmetric unit

B1: QDE-1^Tte catalytic fragment (RNA-dependent RNA polymerase QDE-1 of Thielavia terrestris) (enzyme)
chain: EVYARLQNIWPKFPRWLHAAPLALAWELTRICLHCKVDLEDPTLRYDPSWATSDMAALWRSLTQLDVFRGKSFPERPSAEAFAAALTGNFESRGNTVVLSASLEFNPSKTGPLFLLDMKPLRFDEGCRLTRRFGPDRFLEVLVPSPTALNAPSILKDGGAAQVIRWLTEKPHSLVGRQWQAFYTKDAGYRKPARELRLGPDAKATFKERVHFFAERGHDFRPAPLRTRAQLPPESPSRRRTEIRVSEMLDWLLQLEQNEYQPHLKLFSRIQLGLSKTFPTVTFEPNQIRHRTDDILSPAGKIMNDGIGRMSRSVARKIRDALGLSDIPSAIQGRMGSAKGMWLMDVADAGDDDWIETYPSQRKWKCDDADALHRTLEIRSVSTELKPAALNLQFLPVLEDRAKDKARMRRAIAARLMNDLKKQFDSQKAAVERPLQFRQWVNECTNSRSERVRHGQVPFLGGLPENKGEVLSFLLNSGFDRRQKYIQDLAFDLQKQRCEVLRTKLNIHVGRSAYMFMVVDFWGVLEENEVHVGFSSKFRDDVDDTTYMLLTDCDVLVARSPAHFPSDIQKVRAVFKPQLHALKDVIVFPAKGDIPLADKLSGGDYDGDMAWVCWDPDIVENFTNADMPKEPDLSAYLGKDKTTFGELVRDTGRTGAAARHEAVYDMINKSFQFAMQPNYLGICTNYKERVCYHNNSVSDGVALLLSTLVGKLVDQSKQGILFDAASWDRLRRERLGGRMSVEDPAYKGDVWAGAGEPRHIVDYLKFAVAKPTIDRELEELHKVMQASRRAGPDDDAAAHSWDPDLAVYFENFKALTAESRSLRAVLEALQNALGAVEHEWKVLMSKGSSSSLTYPEKVRQLHAKWCAIEPRAVGRAGSNRLDAKTAALLEQPFLADRGGAGTSYWALLRASTAFKAYYKTNPKFVWQMAGAQLAFIKAQMSSPGGGGGGGSDGMPLLVTPLMYAGLAPDGRFVKQYLARLECDGSQYPDDDLEGDGEDGGGGGGRGDDVD
notes: QDE-1 ortholog of Thielavia terrestris, catalytic fragment; synthetic ORF from Genscript cloned into pFB-LIC-Bse; the monomer used for crystallization has 1,034 residues including the His tag and the tobacco etch virus protease cleavage site; numbers count on: the catalytic fragment; A TEV protease cleavage site lies between the His tag and the fragment and was not cut in the crystallized …
stoichiometry N: 2
